For orientation: Kd means the concentration at which binding is half-saturated. Low readings indicate tighter binding, high ones weaker binding.

Binding result and Kd data for one molecule are collected here from patent publication US20230416361A1 (MIROBIO, published 2023).

In test [1] the target is T1, human CD200RLa full length construct on HEK293T cells (human, UniProt Q6Q8B3 24-271).
T1 construct: whole, on cells; also called CD200R1L
T1 sequence (looked up): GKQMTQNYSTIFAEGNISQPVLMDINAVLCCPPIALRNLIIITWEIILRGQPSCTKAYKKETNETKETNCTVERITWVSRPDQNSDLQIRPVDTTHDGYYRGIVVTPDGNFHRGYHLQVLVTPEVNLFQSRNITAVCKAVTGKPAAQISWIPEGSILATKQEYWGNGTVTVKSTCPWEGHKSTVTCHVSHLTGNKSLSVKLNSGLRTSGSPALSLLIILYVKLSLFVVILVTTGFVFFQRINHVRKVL
The experiment in a line: flow cytometry on transiently transfected HEK293T cells. As to the method: (§1) The binding of CD200R antibodies to human and cyno CD200R and CD200RLa constructs was assessed by flow cytometry of transiently transfected cells. CD200RLa has a charged transmembrane (TM) that is not expected to express well in the absence of appropriate binding partners. Therefore, in addition to the full length CD200RLa constructs, chimeric constructs were used consisting of the CD200RLa extracellular domain fused to mouse CD80 transmembrane and intracellular tail to enable cell surface expression.
(§2) HEK293T cells were plated out at 1 million cells per well in a 6 well plate the day before transfection. The following day cells were transfected with CD200R constructs using 2.5 μg plasmid DNA (a pcDNA3.4 vector containing the CD200R construct sequence) and 10 μl Lipofectamine 2000 (mixed in 200 μl Optimem for 5 minutes then added dropwise to cells). 48 hours after transfection, cells were collected by vigorous pipetting in cold PBS and 50,000 cells pelleted per well in 96 well U bottom plates.
(§3) Cells were then washed and stained for 30 minutes with a secondary staining mix containing a live/dead marker (Near IR LD, Biolegend cat #423106) and APC anti-hIgG (clone QA19A42, Biolegend cat #366906) or AF647 anti-mIgG1 (clone RMG1-1, cat #406618). As a control, cells were separately stained with the commercial anti-CD200R clone OX108 directly labelled with AF647 (Biolegend cat #329308). Finally, cells were washed and resuspended in FACS buffer for acquisition on a FACS Celesta flow cytometer.
A general note: Flow cytometry measures light scatter and fluorescence of single cells or particles in a stream.

For test [2], the target named is T2, human CD200RLa extracellular domain fused to mouse CD80 transmembrane and intracellular tail, on HEK293T cells (human; mouse, UniProt Q6Q8B3 24-239; Q00609 247-306, limits assumed).
T2 construct: extracellular domain;domain: transmembrane and intracellular tail; also called human CD200RLa chimeric construct
T2 sequence (looked up): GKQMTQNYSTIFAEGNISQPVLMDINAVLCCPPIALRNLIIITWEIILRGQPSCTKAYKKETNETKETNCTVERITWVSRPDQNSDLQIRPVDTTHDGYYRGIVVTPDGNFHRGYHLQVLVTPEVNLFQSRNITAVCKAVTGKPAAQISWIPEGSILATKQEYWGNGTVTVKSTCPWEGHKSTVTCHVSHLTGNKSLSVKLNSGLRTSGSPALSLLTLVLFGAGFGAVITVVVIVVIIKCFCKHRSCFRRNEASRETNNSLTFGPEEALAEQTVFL
Described as above. How it is done:
as §1, §2, §3

Test [3] concerns the target T3, monomeric soluble human CD200R extracellular domain (human, UniProt Q8TD46 29-265).
T3 construct: extracellular domain; also called hCD200R; monomeric CD200R protein
T3 sequence (looked up): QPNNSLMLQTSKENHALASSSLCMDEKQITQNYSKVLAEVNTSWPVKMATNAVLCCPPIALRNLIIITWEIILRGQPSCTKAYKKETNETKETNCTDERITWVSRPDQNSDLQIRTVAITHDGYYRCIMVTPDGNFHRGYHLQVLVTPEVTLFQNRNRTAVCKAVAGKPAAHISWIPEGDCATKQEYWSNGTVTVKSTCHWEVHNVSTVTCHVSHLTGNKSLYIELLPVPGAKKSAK
Briefly: SPR, captured antibody, soluble monomeric receptor injected, single cycle kinetics, 37 C. As to the method:
(§4) The binding affinity and kinetics of the CD200R antibodies of the present disclosure to human or cynomolgus CD200R were determined by surface plasmon resonance (SPR) using the Biacore T200 (GE Healthcare). Mouse antibody capture kit (GE Healthcare) was used to coat a Series S CM5 Sensor Chip (GE Healthcare) with polyclonal anti-mouse IgG.
(§5) Anti-CD200R antibody was captured onto the biosensor surface and a negative control antibody (clone Mopc21; Biolegend) captured in the reference channel. Various concentrations of monomeric soluble human CD200R extracellular domain, soluble cynomolgus macaque CD200R1 extracellular domain or soluble cynomolgus macaque CD200RLa (a highly homologous activating receptor) were injected over the immobilized antibodies in the buffer 10 mM Hepes, 150 mM NaCl, 0.005% v/v Surfactant P20, pH 7.4 (HBS-P) at 37° C., in a single cycle kinetics analysis. Association and dissociation rates were fitted using BiaEvaluation Software (GE Healthcare) after reference and blank subtractions, and dissociation constants were calculated (Table 2).
(In general: Surface plasmon resonance follows binding to a sensor surface in real time, without labels.)

Test [4] addresses T4, soluble cynomolgus macaque CD200R1 extracellular domain (cynomolgus macaque, UniProt G7NZT0 29-266).
T4 construct: extracellular domain; also called Cynomolgus CD200R
T4 sequence: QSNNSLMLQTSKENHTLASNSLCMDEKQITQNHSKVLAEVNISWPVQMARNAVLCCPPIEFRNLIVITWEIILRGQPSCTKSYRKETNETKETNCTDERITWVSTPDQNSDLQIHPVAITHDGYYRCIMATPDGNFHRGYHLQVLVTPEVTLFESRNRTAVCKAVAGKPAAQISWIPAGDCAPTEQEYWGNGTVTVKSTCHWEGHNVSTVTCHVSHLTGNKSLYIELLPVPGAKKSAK
Described as above. How it is done:
as §4, §5

Test [5] deals with T5, cyno CD200RLa full length construct on cells (cynomolgus, UniProt A0A2K5W6R0 30-275).
T5 construct: whole, on cells; also called cynomolgus CD200RLa expressed on cells
T5 sequence: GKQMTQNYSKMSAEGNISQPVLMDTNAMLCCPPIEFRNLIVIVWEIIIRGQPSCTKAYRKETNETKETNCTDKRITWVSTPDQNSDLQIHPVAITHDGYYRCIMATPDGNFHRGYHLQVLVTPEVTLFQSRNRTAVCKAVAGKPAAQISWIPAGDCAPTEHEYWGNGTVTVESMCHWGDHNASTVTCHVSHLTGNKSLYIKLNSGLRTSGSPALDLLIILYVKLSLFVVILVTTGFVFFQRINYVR
The experiment in a line: flow cytometry. As to the method:
as §1, §2
Cells were then washed and stained for 30 minutes with a secondary staining mix containing a live/dead marker (Near IR LD, Biolegend cat #423106) and APC anti-hIgG (clone QA19A42, Biolegend cat #366906) or AF647 anti-mIgG1 (clone RMG1-1, cat #406618). As a control, cells were separately stained with the commercial anti-CD200R clone OX108 directly labelled with AF647 (Biolegend cat #329308). […]

B1: anti-CD200R antibody clone 21.3.1 (mIgG1k isotype) (antibody, V domains shown)
VH: QVQLQQPGSELVRPGASVKLSCKASGHTFTSYWMHWVKQRPGQGLEWIGNIYPGSGSINYDEKFKSKAKLTVDTSSRTAYMQLSSLTSEDSAVYYCLTMTGTSWGQGTLVTVSA
VL: DVQMIQSPSSLSASLGDIVTMTCQASQGTPINLHWFQQKPGKAPKLLISGASNLEDGVPSRFSGSRYGTAFTLTISSLEDEDMATYFCLQFTYIPWTFGGGTKLEIKR
notes: Murine hybridoma antibody, IgG1 kappa
Consider B1, for which the binding result in test [1] is “no binding (tested: 10 ug/ml)”; in test [2], “no binding (tested: 10 ug/ml)”; in test [5], “no binding”. In addition, the values for the Kd in test [3] and in test [4] were 0.3 nM and 0.00825 nM, respectively.
